Test results published in US20120277144.

Biological target: cdc42, P60953
Sequence (P60953 1-188): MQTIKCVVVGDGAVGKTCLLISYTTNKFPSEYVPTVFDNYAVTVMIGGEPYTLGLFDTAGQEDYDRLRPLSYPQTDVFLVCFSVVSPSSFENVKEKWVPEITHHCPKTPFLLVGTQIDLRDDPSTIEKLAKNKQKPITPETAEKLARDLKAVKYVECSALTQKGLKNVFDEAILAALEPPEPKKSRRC

B1: FYVE, RhoGEF and PH domain-containing 5 (FGD5) (protein)
chain: MFRGPKPPIAPKPRLTAPNEWRASVYLNDSLNKCSNGRLPCVDRGLDEGPRSIPKCSESETDEDYIVVPRVPLREDEPKDEGSVGNKALVSPESSAEEEEEREEGGEACGLEGTGAGEDSVAPAAPGAGALSREGEEGTDLALEDEGEGCADEPGTLEQVSRSEEEEKLVQPHRECSLEDSGPWAGEGVFQSDLLLPHIHGEDQEPPDTPGEAEEDDEEGCASTDPAGADEGSGPDRPTEDMGQDAEDTSEEPPEKEELAGVQEAETATDCPEVLEEGCEEATGVTGGEQVDLSEPPDHEKKTNQEVAAATLEDHAQDESAEESCQIVPFENDCMEDFVTSLTGSPYEFFPTESTSFCSESCSPLSESAKGLESEQAPKLGLRAEENPMVGALCGQCGSLQGGAAEGPAAPDVVVVLEEEALDDALANPYVMGVGLPGQAAPGEGGQAASDALGGYGSKEELNCEAEGGLVPADRKNTSTRVRPHSGKVAGYVPETVPEETGPEAGSSAPGIGGAAEEVGKTLLSLEGKPLEASRALPAKPRAFTLYPRSFSVEGREIPVSVYQEPEGSGLDDHRIKRKEDNLSLSCVIGSSGSFSQRNHLPSSGTSTPSSMVDIPPPFDLACITKKPITKSSPSLLIESDSPDKYKKKKSSFKRFLALTFKKKTENKLHVDVNVSSSRSSSESSYHGPSRILEVDRRSLSNSPQLKSRTGKLRASESPSSLIFYRDGKRKGVPFSRTVSRVESFEDRSRPPFLPLPLTKPRSISFPSADTSDYENIPAMNSDYENIQIPPRRPARAGAFTKLFEDQSRALSTANENDGYVDMSSFNAFESKQQSADQDAESAYTEPYKVCPISSAAPKEDLTSDEEQRSSEEEDSASRDPSVTHKVEGQSRALVIAQELLSSEKAYVEMLQHLNLDFHGAVMRALDDMDHEGRDTLAREELRQGLSELPAIHDLHQGILEELEERLSNWESQQKVADVFLAREQGFDHHATHILQFDRYLGLLSENCLHSPRLAAAVREFEQSVQGGSQTAKHRLLRVVQRLFQYQVLLTDYLNNLCPDSAEYDNTQGALSLISKVTDRANDSMEQGENLQKLVHIEHSVRGQGDLLQPGREFLKEGTLMKVTGKNRRPRHLFLMNDVLLYTYPQKDGKYRLKNTLAVANMKVSRPVMEKVPYALKIETSESCLMLSASSCAERDEWYGCLSRALPEDYKAQALAAFHHSVEIRERLGVSLGERPPTLVPVTHVMMCMNCGCDFSLTLRRHHCHACGKIVCRNCSRNKYPLKYLKDRMAKVCDGCFGELKKRGRAVPGLMRERPVSMSFPLSSPRFSGSAFSSVFQSINPSTFKKQKKVPSALTEVAASGEGSAISGYLSRCKRGKRHWKKLWFVIKGKVLYTYMASEDKVALESMPLLGFTIAPEKEEGSSEVGPIFHLYHKKTLFYSFKAEDTNSAQRWIEAMEDASVL
B1 was tested, and the “GTP-cdc42 level in a GEF-activity assay (G-lisa, chemo-luminescent measurement of GTP-bound small G-proteins in lysates of Sham Ad or Ad-FGD5 transfected HUVECs)” value was “cdc42-FGD5 binding led to specific activation of cdc42 in a GEF-activity assay”.
